In the Immune Epitope Database (IEDB):
Each block holds one sequence with its values, some of them ahead of it.

What was measured:
HLA-B*27:05 [1] = experiment: IEDB peptide-MHC binding, purified MHC/competitive/fluorescence; filed as Kd, often an IC50 or EC50 that approximates it; ≥ and ≤ were set here for values at or beyond the usual limits of such assays
HLA-A*23:01 = experiment: IEDB peptide-MHC binding, purified MHC/direct/fluorescence; filed as Kd, often an IC50 or EC50 that approximates it; ≥ and ≤ were set here for values at or beyond the usual limits of such assays
HLA-A*24:02 = experiment: as above
HLA-B*40:01 = experiment: as above
HLA-B*44:02 = experiment: as above
HLA-A*26:01 [2] = experiment: as above; conditions: source organism: Influenza A virus(A/swine/Shandong/fNY/2003(H9N2))
HLA-B*07:02 = experiment: as above
HLA-A*11:01 = experiment: as above
HLA-B*15:01 [3] = experiment: as above
HLA-A*02:01 [4] = experiment: as above
HLA-A*03:01 = experiment: as above
HLA-A*01:01 = experiment: as above
HLA-B*08:02 = experiment: as above; conditions: source organism: Influenza A virus(A/swine/Shandong/fNY/2003(H9N2))
HLA-B*08:01 [5] = experiment: as above
HLA-B*46:01 [6] = experiment: as above
HLA-A*31:01 = experiment: as above
HLA-B*27:05 [7] = experiment: as above
HLA-B*58:01 = experiment: as above
HLA-A*24:03 = experiment: as above
HLA-A*29:02 = experiment: as above
HLA-A*02:11 = experiment: as above
HLA-A*02:16 = experiment: as above
HLA-A*68:02 = experiment: as above
HLA-A*02:12 = experiment: as above
HLA-A*02:03 = experiment: as above
HLA-A*02:19 = experiment: as above
HLA-B*57:01 = experiment: IEDB peptide-MHC binding, purified MHC/competitive/fluorescence; filed as Kd, often an IC50 or EC50 that approximates it; ≥ and ≤ were set here for values at or beyond the usual limits of such assays
HLA-A*69:01 [8] = experiment: as above
HLA-A*26:01 [9] = experiment: as above
HLA-B*15:01 [10] = experiment: as above
HLA-A*02:01 [11] = experiment: as above
HLA-B*18:01 [12] = experiment: as above
HLA-B*46:01 [13] = experiment: as above
HLA-B*39:01 = experiment: as above
HLA-B*51:01 = experiment: as above
HLA-B*08:01 [14] = experiment: as above; conditions: source organism: Yersinia pestis Antiqua
HLA-B*15:17 = experiment: as above; conditions: source organism: Orthohantavirus negraense
HLA-A*69:01 [15] = experiment: IEDB peptide-MHC binding, purified MHC/direct/fluorescence; filed as Kd, often an IC50 or EC50 that approximates it; ≥ and ≤ were set here for values at or beyond the usual limits of such assays
HLA-B*15:09 = experiment: as above; conditions: source organism: Giardia lamblia ATCC 50803
HLA-B*18:01 [16] = experiment: as above; conditions: source organism: Escherichia coli O157:H7
[17] = source organism: dengue virus type 2
[18] = source organism: Influenza A virus (A/Viet Nam/HN/2004(H5N1))
[19] = source organism: Orthohantavirus tulaense
[20] = source organism: Orthohantavirus negraense
[21] = source organism: Giardia lamblia ATCC 50803
[22] = source organism: Francisella tularensis subsp. holarctica LVS
[23] = source organism: Escherichia coli O157:H7

Sequence: RQWRWPLGE
- Kd (HLA-B*27:05 [1]; source organism: Mycobacterium tuberculosis C): 0.928 µM

Sequence: WYGMEIRPL
- Kd (HLA-A*23:01; [17]): 1.8 µM
- Kd (HLA-A*24:02; [17]): 0.455 µM

Sequence: ERNEQGQTL
- Kd (HLA-B*40:01; [18]): ≥ 20 µM
- Kd (HLA-B*44:02; [18]): ≥ 20 µM
- Kd (HLA-A*26:01 [2]): ≥ 20 µM
- Kd (HLA-B*07:02; [18]): ≥ 20 µM
- Kd (HLA-A*11:01; [18]): ≥ 20 µM
- Kd (HLA-B*15:01 [3]; [18]): ≥ 20 µM
- Kd (HLA-A*02:01 [4]; [18]): ≥ 20 µM
- Kd (HLA-A*03:01; [18]): ≥ 20 µM
- Kd (HLA-A*01:01; [18]): ≥ 20 µM
- Kd (HLA-B*08:02): ≥ 20 µM
- Kd (HLA-B*08:01 [5]; [18]): ≥ 20 µM
- Kd (HLA-B*46:01 [6]; [18]): ≥ 20 µM
- Kd (HLA-A*31:01; [18]): ≥ 20 µM
- Kd (HLA-B*27:05 [7]; [18]): ≥ 20 µM
- Kd (HLA-A*24:02; [18]): ≥ 20 µM
- Kd (HLA-B*58:01; [18]): ≥ 20 µM

Sequence: RRAYSGKQY
- Kd (HLA-A*24:03; [19]): ≥ 20 µM
- Kd (HLA-A*29:02; [19]): ≥ 20 µM
- Kd (HLA-A*23:01; [19]): ≥ 20 µM
- Kd (HLA-A*02:11; [19]): ≥ 20 µM
- Kd (HLA-A*02:16; [19]): ≥ 20 µM
- Kd (HLA-A*68:02; [19]): ≥ 20 µM
- Kd (HLA-A*03:01; [19]): ≥ 20 µM
- Kd (HLA-A*02:12; [19]): ≥ 20 µM
- Kd (HLA-A*02:03; [19]): ≥ 20 µM
- Kd (HLA-A*02:19; [19]): ≥ 20 µM
- Kd (HLA-B*57:01; source organism: Kurkino virus): ≥ 20 µM
- Kd (HLA-A*69:01 [8]; source organism: Kurkino virus): ≥ 20 µM
- Kd (HLA-A*26:01 [9]; source organism: Kurkino virus): ≥ 20 µM
- Kd (HLA-B*15:01 [10]; source organism: Kurkino virus): ≥ 20 µM
- Kd (HLA-A*02:01 [11]; source organism: Kurkino virus): ≥ 20 µM
- Kd (HLA-B*18:01 [12]; source organism: Kurkino virus): ≥ 20 µM
- Kd (HLA-B*46:01 [13]; source organism: Kurkino virus): ≥ 20 µM
- Kd (HLA-B*39:01; source organism: Kurkino virus): ≥ 20 µM
- Kd (HLA-B*27:05 [1]; source organism: Kurkino virus): 0.23 µM
- Kd (HLA-B*51:01; source organism: Kurkino virus): ≥ 20 µM

Sequence: LRQKRKAGV
- Kd (HLA-B*08:01 [14]): ≥ 20 µM
- Kd (HLA-B*27:05 [1]; source organism: Yersinia pestis Antiqua): 0.0805 µM

Sequence: RRFTQAIYD
- Kd (HLA-A*24:03; [20]): ≥ 20 µM
- Kd (HLA-A*29:02; [20]): ≥ 20 µM
- Kd (HLA-A*23:01; [20]): ≥ 20 µM
- Kd (HLA-A*02:11; [20]): ≥ 20 µM
- Kd (HLA-A*02:16; [20]): ≥ 20 µM
- Kd (HLA-A*68:02; [20]): ≥ 20 µM
- Kd (HLA-A*03:01; [20]): ≥ 20 µM
- Kd (HLA-A*02:12; [20]): ≥ 20 µM
- Kd (HLA-A*02:03; [20]): ≥ 20 µM
- Kd (HLA-A*02:19; [20]): ≥ 20 µM
- Kd (HLA-B*57:01; [20]): ≥ 20 µM
- Kd (HLA-A*69:01 [8]; [20]): ≥ 20 µM
- Kd (HLA-A*26:01 [9]; [20]): ≥ 20 µM
- Kd (HLA-B*15:01 [10]; [20]): ≥ 20 µM
- Kd (HLA-A*02:01 [11]; [20]): ≥ 20 µM
- Kd (HLA-B*18:01 [12]; [20]): ≥ 20 µM
- Kd (HLA-B*15:17): ≥ 20 µM
- Kd (HLA-B*46:01 [13]; [20]): ≥ 20 µM
- Kd (HLA-B*39:01; [20]): ≥ 20 µM
- Kd (HLA-B*27:05 [1]; [20]): 0.317 µM
- Kd (HLA-B*51:01; [20]): ≥ 20 µM

Sequence: LERIKANIF
- Kd (HLA-B*40:01; [21]): 2.43 µM
- Kd (HLA-B*44:02; [21]): ≥ 20 µM
- Kd (HLA-A*69:01 [15]; [21]): ≥ 20 µM
- Kd (HLA-B*07:02; [21]): ≥ 20 µM
- Kd (HLA-A*11:01; [21]): ≥ 20 µM
- Kd (HLA-B*15:01 [3]; [21]): 0.918 µM
- Kd (HLA-A*02:01 [4]; [21]): ≥ 20 µM
- Kd (HLA-A*03:01; [21]): ≥ 20 µM
- Kd (HLA-A*01:01; [21]): ≥ 20 µM
- Kd (HLA-B*08:01 [5]; [21]): 16.6 µM
- Kd (HLA-B*46:01 [6]; [21]): ≥ 20 µM
- Kd (HLA-A*31:01; [21]): ≥ 20 µM
- Kd (HLA-B*27:05 [7]; [21]): ≥ 20 µM
- Kd (HLA-A*24:02; [21]): ≥ 20 µM
- Kd (HLA-B*58:01; [21]): ≥ 20 µM
- Kd (HLA-B*15:09): ≥ 20 µM

Sequence: VYYIVVRDF
- Kd (HLA-A*24:03; [22]): 0.0275 µM
- Kd (HLA-A*23:01; [22]): 0.017 µM
- Kd (HLA-A*24:02; [22]): 0.0061 µM

- Kd (HLA-B*40:01; [23]): ≥ 20 µM
- Kd (HLA-B*44:02; [23]): ≥ 20 µM
- Kd (HLA-A*69:01 [15]; [23]): ≥ 20 µM
- Kd (HLA-B*07:02; [23]): ≥ 20 µM
- Kd (HLA-A*11:01; [23]): ≥ 20 µM
- Kd (HLA-B*15:01 [3]; [23]): ≥ 20 µM
- Kd (HLA-A*02:01 [4]; [23]): ≥ 20 µM
- Kd (HLA-A*03:01; [23]): ≥ 20 µM
- Kd (HLA-B*18:01 [16]): ≥ 20 µM
- Kd (HLA-A*01:01; [23]): ≥ 20 µM
- Kd (HLA-B*46:01 [6]; [23]): ≥ 20 µM
- Kd (HLA-A*31:01; [23]): ≥ 20 µM
- Kd (HLA-B*27:05 [7]; [23]): ≥ 20 µM
- Kd (HLA-A*24:02; [23]): ≥ 20 µM
- Kd (HLA-B*58:01; [23]): ≥ 20 µM
Sequence: LDKGKLWHL
